B1: Human single-chain (sc) IL-23 (IL-12p40(23-328)-(GGGGS)x4-IL-23p19(21-189)-TEV-FLAG-8His) (ligand)
chain: IWELKKDVYVVELDWYPDAPGEMVVLTCDTPEEDGITWTLDQSSEVLGSGKTLTIQVKEFGDAGQYTCHKGGEVLSHSLLLLHKKEDGIWSTDILKDQKEPKNKTFLRCEAKNYSGRFTCWWLTTISTDLTFSVKSSRGSSDPQGVTCGAATLSAERVRGDNKEYEYSVECQEDSACPAAEESLPIEVMVDAVHKLKYENYTSSFFIRDIIKPDPPKNLQLKPLKNSRQVEVSWEYPDTWSTPHSYFSLTFCVQVQGKSKREKKDRVFTDKTSATVICRKNASISVRAQDRYYSSSWSEWASVPCSGGGGSGGGGSGGGGSGGGGSAVPGGSSPAWTQCQQLSQKLCTLAWSAHPLVGHMDLREEGDEETTNDVPHIQCGDGCDPQGLRDNSQFCLQRIHQGLIFYEKLLGSDIFTGEPSLLPDSPVGQLHASLLGLSQLLQPEGHHWETQQIPSLSPSQPWQRLLLRFKILRSLQAFVAVAARVFAHGAATLSP
B2: Human IL-23Rα protein (receptor)
chain: GITNINCSGHIWVEPATIFKMGMNISIYCQAAIKNCQPRKLHFYKNGIKERFQITRINKTTARLWYKNFLEPHASMYCTAECPKHFQETLICGKDISSGYPPDIPDEVTCVIYEYSGNMTCTWNAGKLTYIDTKYVVHVKSLETEEEQQYLTSSYINISTDSLQGGKKYLVWVQAANALGMEESKQLQIHLDDIVIPSAAVISRAETINATVPKTIIYWDSQTTIEKVSCEMRYKATTNQTWNVKEFDTNFTYVQQSEFYLEPNIKYVFQVRCQETGKRYWQPWSSLFFHKTPETVPQVTSKAFQHDTWNSGLTVASISTGHLTSDNRGDIG

Experiments:
Experiment in all cases: SPR
[1] = target: B2
[2] = target: Human IL-12Rβ1-Fc (human, UniProt P42701)
[3] = target: B1

Binder | Kd [1] | Kd [2] | KD with a saturating amount of tildrakizumab bound to IL-23 [3]
B1 | 0.8 nM | 19 nM | 
B2 |  |  | 190 nM
